Earlier results on one substance are cited in article PMC7529620.

In the series the target is NCAM/GFRα1 (Homo sapiens) (UniProt P13591).
Sequence of UniProt P13591 (P13591 20-718, chain 1 of 2): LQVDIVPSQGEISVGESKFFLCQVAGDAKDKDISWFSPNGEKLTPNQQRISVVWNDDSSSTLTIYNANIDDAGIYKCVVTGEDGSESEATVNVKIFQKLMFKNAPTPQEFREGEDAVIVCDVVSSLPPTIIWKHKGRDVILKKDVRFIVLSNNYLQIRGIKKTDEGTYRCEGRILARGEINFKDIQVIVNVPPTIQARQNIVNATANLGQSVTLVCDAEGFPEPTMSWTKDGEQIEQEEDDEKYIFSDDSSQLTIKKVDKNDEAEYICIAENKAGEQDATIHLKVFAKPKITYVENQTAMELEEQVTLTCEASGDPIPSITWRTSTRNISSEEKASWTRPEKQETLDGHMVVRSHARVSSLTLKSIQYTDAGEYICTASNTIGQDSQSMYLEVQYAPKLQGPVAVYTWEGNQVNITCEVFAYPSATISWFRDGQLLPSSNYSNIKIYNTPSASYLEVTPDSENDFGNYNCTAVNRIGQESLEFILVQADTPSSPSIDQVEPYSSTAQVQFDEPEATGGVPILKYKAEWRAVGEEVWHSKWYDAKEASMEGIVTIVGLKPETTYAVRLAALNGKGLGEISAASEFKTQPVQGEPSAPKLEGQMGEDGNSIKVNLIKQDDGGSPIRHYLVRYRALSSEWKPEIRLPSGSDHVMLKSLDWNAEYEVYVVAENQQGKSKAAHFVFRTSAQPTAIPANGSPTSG
Sequence of UniProt P13591 (P56159 25-429, chain 2 of 2, further chain): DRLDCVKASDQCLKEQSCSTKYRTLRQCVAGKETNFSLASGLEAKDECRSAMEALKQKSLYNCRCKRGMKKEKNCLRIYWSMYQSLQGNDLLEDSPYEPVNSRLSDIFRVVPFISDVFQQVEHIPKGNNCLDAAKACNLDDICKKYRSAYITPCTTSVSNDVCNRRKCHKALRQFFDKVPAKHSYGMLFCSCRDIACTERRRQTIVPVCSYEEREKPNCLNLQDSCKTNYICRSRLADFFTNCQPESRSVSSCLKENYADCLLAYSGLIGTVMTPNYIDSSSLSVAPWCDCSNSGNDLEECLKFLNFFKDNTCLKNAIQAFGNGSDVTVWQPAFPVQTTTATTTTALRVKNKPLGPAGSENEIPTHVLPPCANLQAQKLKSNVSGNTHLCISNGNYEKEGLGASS

As usually defined, the Kd is a measure of binding affinity in units of concentration. Turning to GDNF (from UniProt P39905), the Kd was 1 nM.
